Assay results published in ChEMBL document CHEMBL2074293, “Function and expression of multidrug resistance-associated protein family in human colon adenocarcinoma cells (Caco-2)” (J Pharmacol Exp Ther, 2000).

Columns and labels:
[1] = substrate: C[C@]12CC[C@@H]3c4ccc(O)cc4CC[C@H]3[C@@H]1CC[C@@H]2O[C@@H]1O[C@H](C(=O)O)[C@@H](O)[C@H](O)[C@H]1O; assay: (§1) TP_TRANSPORTER: uptake in brush-border membrane vesicle from Caco-2 cells; type: functional, cell membranes
[2] = substrate: N[C@@H](CCC(=O)N[C@H](CSc1ccc([N+](=O)[O-])cc1[N+](=O)[O-])C(=O)NCC(=O)O)C(=O)O; assay: as §1; type: functional, cell membranes

B1: ATP-binding cassette sub-family C member 2 (Homo sapiens) (protein)
chain: MLEKFCNSTFWNSSFLDSPEADLPLCFEQTVLVWIPLGYLWLLAPWQLLHVYKSRTKRSSTTKLYLAKQVFVGFLLILAAIELALVLTEDSGQATVPAVRYTNPSLYLGTWLLVLLIQYSRQWCVQKNSWFLSLFWILSILCGTFQFQTLIRTLLQGDNSNLAYSCLFFISYGFQILILIFSAFSENNESSNNPSSIASFLSSITYSWYDSIILKGYKRPLTLEDVWEVDEEMKTKTLVSKFETHMKRELQKARRALQRRQEKSSQQNSGARLPGLNKNQSQSQDALVLEDVEKKKKKSGTKKDVPKSWLMKALFKTFYMVLLKSFLLKLVNDIFTFVSPQLLKLLISFASDRDTYLWIGYLCAILLFTAALIQSFCLQCYFQLCFKLGVKVRTAIMASVYKKALTLSNLARKEYTVGETVNLMSVDAQKLMDVTNFMHMLWSSVLQIVLSIFFLWRELGPSVLAGVGVMVLVIPINAILSTKSKTIQVKNMKNKDKRLKIMNEILSGIKILKYFAWEPSFRDQVQNLRKKELKNLLAFSQLQCVVIFVFQLTPVLVSVVTFSVYVLVDSNNILDAQKAFTSITLFNILRFPLSMLPMMISSMLQASVSTERLEKYLGGDDLDTSAIRHDCNFDKAMQFSEASFTWEHDSEATVRDVNLDIMAGQLVAVIGPVGSGKSSLISAMLGEMENVHGHITIKGTTAYVPQQSWIQNGTIKDNILFGTEFNEKRYQQVLEACALLPDLEMLPGGDLAEIGEKGINLSGGQKQRISLARATYQNLDIYLLDDPLSAVDAHVGKHIFNKVLGPNGLLKGKTRLLVTHSMHFLPQVDEIVVLGNGTIVEKGSYSALLAKKGEFAKNLKTFLRHTGPEEEATVHDGSEEEDDDYGLISSVEEIPEDAASITMRRENSFRRTLSRSSRSNGRHLKSLRNSLKTRNVNSLKEDEELVKGQKLIKKEFIETGKVKFSIYLEYLQAIGLFSIFFIILAFVMNSVAFIGSNLWLSAWTSDSKIFNSTDYPASQRDMRVGVYGALGLAQGIFVFIAHFWSAFGFVHASNILHKQLLNNILRAPMRFFDTTPTGRIVNRFAGDISTVDDTLPQSLRSWITCFLGIISTLVMICMATPVFTIIVIPLGIIYVSVQMFYVSTSRQLRRLDSVTRSPIYSHFSETVSGLPVIRAFEHQQRFLKHNEVRIDTNQKCVFSWITSNRWLAIRLELVGNLTVFFSALMMVIYRDTLSGDTVGFVLSNALNITQTLNWLVRMTSEIETNIVAVERITEYTKVENEAPWVTDKRPPPDWPSKGKIQFNNYQVRYRPELDLVLRGITCDIGSMEKIGVVGRTGAGKSSLTNCLFRILEAAGGQIIIDGVDIASIGLHDLREKLTIIPQDPILFSGSLRMNLDPFNNYSDEEIWKALELAHLKSFVASLQLGLSHEVTEAGGNLSIGQRQLLCLGRALLRKSKILVLDEATAAVDLETDNLIQTTIQNEFAHCTVITIAHRLHTIMDSDKVMVLDNGKIIECGSPEELLQIPGPFYFMAKEAGIENVNSTKF
In the case of B1, the Km [1] is reported as 9.4 µM and the Km [2] is reported as 16.9 µM.
